Results taken from US20150158912A1 (CLEVELAND CLINIC FOUNDATION, published 2015).
Positions count from the first letter of the chain named. Names may count otherwise. One block for each binder: values may come before it.

Experiments:
[1] = molecular target: T1, V5-tagged human IL-17RA, wild type (human, UniProt Q96F46 33-866, limits assumed); test: co-immunoprecipitation, as told back in Example 9
T1 construct: Expressed in HeLa cells and immunoprecipitated from the lysate; also called V5-tagged IL-17RA; the wild-type receptor
T1 sequence (looked up): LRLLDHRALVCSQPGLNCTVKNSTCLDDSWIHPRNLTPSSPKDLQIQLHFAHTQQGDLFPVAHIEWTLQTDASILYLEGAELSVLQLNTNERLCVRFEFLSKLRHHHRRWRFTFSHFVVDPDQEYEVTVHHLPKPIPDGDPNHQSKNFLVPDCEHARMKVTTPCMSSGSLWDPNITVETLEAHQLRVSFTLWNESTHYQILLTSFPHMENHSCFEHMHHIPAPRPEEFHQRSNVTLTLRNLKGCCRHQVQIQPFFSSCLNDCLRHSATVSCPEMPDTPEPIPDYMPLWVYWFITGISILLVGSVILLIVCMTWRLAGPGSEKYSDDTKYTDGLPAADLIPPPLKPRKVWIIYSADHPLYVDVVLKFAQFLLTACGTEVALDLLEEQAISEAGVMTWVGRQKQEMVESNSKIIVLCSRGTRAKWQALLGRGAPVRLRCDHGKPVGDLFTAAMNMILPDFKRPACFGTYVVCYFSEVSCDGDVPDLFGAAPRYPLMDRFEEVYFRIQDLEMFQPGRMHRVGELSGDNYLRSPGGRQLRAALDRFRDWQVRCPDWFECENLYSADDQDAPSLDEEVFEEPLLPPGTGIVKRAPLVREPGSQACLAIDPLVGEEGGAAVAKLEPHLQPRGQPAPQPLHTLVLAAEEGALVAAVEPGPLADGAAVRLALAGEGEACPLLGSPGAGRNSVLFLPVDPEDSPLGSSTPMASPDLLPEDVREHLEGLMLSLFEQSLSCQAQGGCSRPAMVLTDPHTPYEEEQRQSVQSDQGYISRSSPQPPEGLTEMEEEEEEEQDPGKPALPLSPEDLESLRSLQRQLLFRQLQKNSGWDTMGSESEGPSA

[2] = molecular target: T2, Act1 in IL-17RB-deficient MEFs reconstituted with Myc-tagged IL-17RB (mouse (cells are mouse embryonic …, UniProt Q8N7N6 1-555)); test: co-immunoprecipitation in reconstituted IL-17RB-deficient MEFs (IP anti-Myc)
T2 construct: That the co-precipitated Act1 is the cells' own is read from the description of the experiment
T2 sequence (looked up): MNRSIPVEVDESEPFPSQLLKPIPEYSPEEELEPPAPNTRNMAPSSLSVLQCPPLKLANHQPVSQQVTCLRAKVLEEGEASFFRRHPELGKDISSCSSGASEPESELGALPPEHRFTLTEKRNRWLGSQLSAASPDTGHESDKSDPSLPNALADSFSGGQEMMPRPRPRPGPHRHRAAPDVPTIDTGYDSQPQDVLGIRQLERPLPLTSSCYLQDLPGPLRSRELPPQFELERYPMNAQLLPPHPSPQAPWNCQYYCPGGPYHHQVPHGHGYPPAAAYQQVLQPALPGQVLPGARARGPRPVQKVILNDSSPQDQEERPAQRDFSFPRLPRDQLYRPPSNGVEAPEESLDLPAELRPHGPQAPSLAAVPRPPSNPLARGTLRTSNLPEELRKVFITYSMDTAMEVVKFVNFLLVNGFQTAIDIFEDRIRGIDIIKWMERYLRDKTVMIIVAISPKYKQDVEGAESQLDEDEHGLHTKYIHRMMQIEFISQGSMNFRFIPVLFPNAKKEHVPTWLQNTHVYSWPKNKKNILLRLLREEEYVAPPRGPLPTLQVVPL

binding result [1]: no binding
B1: FLAG-tagged mouse Act1 point mutant H472D (other, UniProt Q8N7N6 1-555, looked up)
chain: T2 sequence (looked up) with H475D

binding result [2]: no binding
B2: Myc-tagged mouse IL-17RB point mutant L419D (receptor, UniProt Q9JIP3 18-499, looked up)
chain: REPTIQCGSETGPSPEWMVQHTLTPGDLRDLQVELVKTSVAAEEFSILMNISWILRADASIRLLKATKICVSGKNNMNSYSCVRCNYTEAFQSQTRPSGGKWTFSYVGFPVELSTLYLISAHNIPNANMNEDSPSLSVNFTSPGCLNHVMKYKKQCTEAGSLWDPDITACKKNEKMVEVNFTTNPLGNRYTILIQRDTTLGFSRVLENKLMRTSVAIPVTEESEGAVVQLTPYLHTCGNDCIRREGTVVLCSETSAPIPPDDNRRMLGGWLPLFLVLLVAVWVLAAGIYLTWRQGRSTKTSFPISTMLLPLIKVLVVYPSEICFHHTVCRFTDFLQNYCRSEVILEKWQKKKIAEMGPVQWLTTQKQAADKVVFLLPSDVPTLCDSACGHNEGSARENSQDDFPLAFNLFCSDFSSQTHLHKYLVVYLGGADLKGDYNALSVCPQYHLMKDATAFHTELLKATQSMSVKKRSQACHDSCSPL

binding result [2]: no binding
B3: Myc-tagged mouse IL-17RB point mutant L422D (receptor, UniProt Q9JIP3 18-499, looked up)
chain: B2 chain with D402L, L405D
